According to the supplement of paper PMC9233669:
Fewer inactive variants are shown than the library holds.

Assays:
biotinyl-Val-oxazolone = test: self-aminoacylation, catalytic enhancement (BVO) (fold over background); higher = more active; k-Seq, kA / k0A0; sequences stand for … in GGGAAUGGAUCCACAUCUACGAAUUC…UUCACUGCAGACUUGACGAAGCUG
Method in brief: (§1)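 Catalytic enhancement equals the median kA over the uncatalyzed rate, the latter read from the low-activity peak of a bimodal Gaussian fit. Values of kA came from fitting each sequence's fraction reacted to a pseudo-first-order model, with 1000 bootstraps. Reacted RNA was captured with streptavidin and quantified by triplicate qPCR and Illumina sequencing after 90 minutes at room temperature with 2–1250 μM biotinyl-aminoacyl-oxazolone and 0.43 μM mutagenized RNA pools bearing a 21-nt variable region.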

biotinyl-Leu-oxazolone = test: self-aminoacylation, catalytic enhancement (BLO) (fold over background); higher = more active; k-Seq, kA / k0A0; sequences stand for … in GGGAAUGGAUCCACAUCUACGAAUUC…UUCACUGCAGACUUGACGAAGCUG
Method in brief: as §1

biotinyl-Ile-oxazolone = test: self-aminoacylation, catalytic enhancement (BIO) (fold over background); higher = more active; k-Seq, kA / k0A0; sequences stand for … in GGGAAUGGAUCCACAUCUACGAAUUC…UUCACUGCAGACUUGACGAAGCUG
Method in brief: as §1

biotinyl-Trp-oxazolone = test: self-aminoacylation, catalytic enhancement (BWO) (fold over background); higher = more active; k-Seq, kA / k0A0; sequences stand for … in GGGAAUGGAUCCACAUCUACGAAUUC…UUCACUGCAGACUUGACGAAGCUG
Method in brief: as §1

biotinyl-Phe-oxazolone = test: self-aminoacylation, catalytic enhancement (BFO) (fold over background); higher = more active; k-Seq, kA / k0A0; sequences stand for … in GGGAAUGGAUCCACAUCUACGAAUUC…UUCACUGCAGACUUGACGAAGCUG
Method in brief: as §1

biotinyl-Met-oxazolone = test: self-aminoacylation, catalytic enhancement (BMO) (fold over background); higher = more active; k-Seq, kA / k0A0; sequences stand for … in GGGAAUGGAUCCACAUCUACGAAUUC…UUCACUGCAGACUUGACGAAGCUG
Method in brief: as §1

| Sequence | self-aminoacylation (biotinyl-Val-oxazolone) | self-aminoacylation (biotinyl-Leu-oxazolone) | self-aminoacylation (biotinyl-Ile-oxazolone) | self-aminoacylation (biotinyl-Trp-oxazolone) | self-aminoacylation (biotinyl-Phe-oxazolone) | self-aminoacylation (biotinyl-Met-oxazolone) |
| --- | --- | --- | --- | --- | --- | --- |
| AAGCUUUCUAAUAGUCGCAAG [Fam3.1 aminoacylation ribozyme variant] | 1.71 | 1.81 | 2.02 | 1.93 | 3.08 | 1.44 |
| AAGGCUGCUAAUAGUCGCAAG [Fam3.1 aminoacylation ribozyme variant] | 1.38 | 1.64 | 1.73 | 7.19 | 20 | 2.04 |
| AAGGUGGCUAAUAGUCGCAAG [Fam3.1 aminoacylation ribozyme variant] | 1.41 | 1.74 | 1.63 | 1.95 | 1.82 | 1.65 |
| AAGGUUGCUAAAAGUCGCAAG [Fam3.1 aminoacylation ribozyme variant] | 1.67 | 1.6 | 1.62 | 1.93 | 4.28 | 1.52 |
| AAGGUUGCUAACAGUCGCAAG [Fam3.1 aminoacylation ribozyme variant] | 1.11 | 1.83 | 1.33 | 1.65 | 3.97 | 1.06 |
| AAGGUUGCUAAUAGUCACAAG [Fam3.1 aminoacylation ribozyme variant] | 1.32 | 1.57 | 1.71 | 1.72 | 4.71 | 1.72 |
| AAGUAAGCUAAUAGUCGCAAG [Fam3.1 aminoacylation ribozyme variant] | 1.33 | 1.43 | 1.55 | 1.5 | 2.82 | 1.18 |
| AAGUAUGCGAAUAGUCGCAAG [Fam3.1 aminoacylation ribozyme variant] | 1 | 1.19 | 1.32 | 0.948 | 1.74 | 1.13 |
| AAGUAUGCUAAUAGACGCAAG [Fam3.1 aminoacylation ribozyme variant] | 0.637 | 0.725 | 0.823 | 0.756 | 1.04 | 0.824 |
| AAGUAUGCUAAUAGUAGCAAG [Fam3.1 aminoacylation ribozyme variant] | 1.46 | 1.54 | 1.53 | 0.882 | 1.46 | 1.22 |
| AAGUAUGCUAAUAGUCGCAGG [Fam3.1 aminoacylation ribozyme variant] | 1.48 | 1.46 | 1.44 | 1.2 | 2.31 | 1.37 |
| AAGUAUGCUAAUAGUCGGAAG [Fam3.1 aminoacylation ribozyme variant] | 1.29 | 1.42 | 1.64 | 4.24 | 11.1 | 1.72 |
| AAGUAUGCUAAUAGUUGCAAG [Fam3.1 aminoacylation ribozyme variant] | 1.38 | 1.11 | 1.44 | 1.73 | 2.31 | 1.71 |
| AAGUAUGCUAAUAUUCGCAAG [Fam3.1 aminoacylation ribozyme variant] | 1.46 | 2.04 | 1.95 | 2.45 | 1.45 | 1.76 |
| AAGUAUGUUAAUAGUCGCAAG [Fam3.1 aminoacylation ribozyme variant] | 1.24 | 1.44 | 1.44 | 1.38 | 1.49 | 1.4 |
| AAGUCUGCUAAUAGUCUCAAG [Fam3.1 aminoacylation ribozyme variant] | 1.2 | 1.43 | 1.14 | 4.59 | 19.4 | 1.76 |
| AAGUCUGCUAAUAUUCGCAAG [Fam3.1 aminoacylation ribozyme variant] | 1.06 | 1.06 | 1.11 | 1.77 | 2.54 | 1.49 |
| AAGUCUGCUACUAGUCGCAAG [Fam3.1 aminoacylation ribozyme variant] | 0.84 | 1.15 | 0.699 | 0.731 | 0.846 | 0.856 |
| AAGUCUGGUAAUAGUCGCAAG [Fam3.1 aminoacylation ribozyme variant] | 0.918 | 0.903 | 1.17 | 0.868 | 2.18 | 1.16 |
| AAGUGGGCUAAUAGUCGCAAG [Fam3.1 aminoacylation ribozyme variant] | 1.32 | 1.44 | 1.6 | 1.73 | 2.27 | 1.56 |
| AAGUGUGCUAAUAGUCGCAAG [Fam3.1 aminoacylation ribozyme variant] | 1.36 | 1.36 | 1.56 | 6.71 | 21.7 | 1.69 |
| AAGUGUGCUACUAGUCGCAAG [Fam3.1 aminoacylation ribozyme variant] | 1.04 | 0.938 | 1.29 | 1.41 | 1.71 | 1.33 |
| AAGUUACCUAAUAGUCGCAAG [Fam3.1 aminoacylation ribozyme variant] | 1.4 | 1.39 | 1.25 | 1.74 | 2.52 | 1.44 |
| AAGUUAGCAAAUAGUCGCAAG [Fam3.1 aminoacylation ribozyme variant] | 1.23 | 1.32 | 1.42 | 1.36 | 2.37 | 1.44 |
| AAGUUAGCUAAUAGUCGCAAA [Fam3.1 aminoacylation ribozyme variant] | 1.39 | 1.64 | 2.01 | 1.06 | 2.51 | 1.47 |
